Results from patent publication US20250154517A1.

Target: NpuDnaE(C)_Hyg^R (90-341) (Nostoc punctiforme; Escherichia coli)
Experiment: cell-based or functional assay

rooting of co-transformed poplar shoots on root induction medium supplied with Hygromycin: 80%
Substance: Hyg^R(1-89)-NpuDnaE(N)
